Test results: patent US10426824 (Dana-Farber, dated 2019)

Target: HLA-A3 (human)
Assay: competitive MHC binding assay against a reference peptide

- IC50: 17 nM
B1: E255K-B255-263 mutant BCR-ABL peptide (KVYEGVWKK) (peptide)
peptide: KVYEGVWKK
notes: Synthetic 9-mer; also called E255K-B (MUT) peptide; BCR-ABL peptide harboring the E255K mutation
